Reference: IntAct's records for PubMed 35512704

B1: Mothers against decapentaplegic homolog 4 (Homo sapiens), Q13485 (parent)
chain: MDNMSITNTPTSNDACLSIVHSLMCHRQGGESETFAKRAIESLVKKLKEKKDELDSLITAITTNGAHPSKCVTIQRTLDGRLQVAGRKGFPHVIYARLWRWPDLHKNELKHVKYCQYAFDLKCDSVCVNPYHYERVVSPGIDLSGLTLQSNAPSSMMVKDEYVHDFEGQPSLSTEGHSIQTIQHPPSNRASTETYSTPALLAPSESNATSTANFPNIPVASTSQPASILGGSHSEGLLQIASGPQPGQQQNGFTGQPATYHHNSTTTWTGSRTAPYTPNLPHHQNGHLQHHPPMPPHPGHYWPVHNELAFQPPISNHPAPEYWCSIAYFEMDVQVGETFKVPSSCPIVTVDGYVDPSGGDRFCLGQLSNVHRTEAIERARLHIGKGVQLECKGEGDVWVRCLSDHAVFVQSYYLDREAGRAPGDAVHKIYPSAYIKVFDLRQCHRQMQQQAATAQAAAAAQAAAVAGNIPGPGSVGGIAPAISLSAAAGIGVDDLRRLCILRMSFVKGWGPDYPRQSIKETPCWIEIHLHRALQLLDEVLHTMPIADPQPLD
partner: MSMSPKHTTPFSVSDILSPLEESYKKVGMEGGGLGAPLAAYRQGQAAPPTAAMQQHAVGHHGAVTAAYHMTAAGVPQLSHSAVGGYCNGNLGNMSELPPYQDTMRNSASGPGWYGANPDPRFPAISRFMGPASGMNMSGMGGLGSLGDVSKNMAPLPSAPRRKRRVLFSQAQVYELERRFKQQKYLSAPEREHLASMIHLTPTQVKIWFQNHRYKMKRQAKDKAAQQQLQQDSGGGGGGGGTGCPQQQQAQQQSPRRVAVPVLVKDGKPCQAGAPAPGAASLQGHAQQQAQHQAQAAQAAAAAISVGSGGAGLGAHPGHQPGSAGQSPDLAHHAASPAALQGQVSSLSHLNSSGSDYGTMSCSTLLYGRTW
B2: Mothers against decapentaplegic homolog 4 (Homo sapiens), Q13485 (parent)
chain: B1 chain
partner: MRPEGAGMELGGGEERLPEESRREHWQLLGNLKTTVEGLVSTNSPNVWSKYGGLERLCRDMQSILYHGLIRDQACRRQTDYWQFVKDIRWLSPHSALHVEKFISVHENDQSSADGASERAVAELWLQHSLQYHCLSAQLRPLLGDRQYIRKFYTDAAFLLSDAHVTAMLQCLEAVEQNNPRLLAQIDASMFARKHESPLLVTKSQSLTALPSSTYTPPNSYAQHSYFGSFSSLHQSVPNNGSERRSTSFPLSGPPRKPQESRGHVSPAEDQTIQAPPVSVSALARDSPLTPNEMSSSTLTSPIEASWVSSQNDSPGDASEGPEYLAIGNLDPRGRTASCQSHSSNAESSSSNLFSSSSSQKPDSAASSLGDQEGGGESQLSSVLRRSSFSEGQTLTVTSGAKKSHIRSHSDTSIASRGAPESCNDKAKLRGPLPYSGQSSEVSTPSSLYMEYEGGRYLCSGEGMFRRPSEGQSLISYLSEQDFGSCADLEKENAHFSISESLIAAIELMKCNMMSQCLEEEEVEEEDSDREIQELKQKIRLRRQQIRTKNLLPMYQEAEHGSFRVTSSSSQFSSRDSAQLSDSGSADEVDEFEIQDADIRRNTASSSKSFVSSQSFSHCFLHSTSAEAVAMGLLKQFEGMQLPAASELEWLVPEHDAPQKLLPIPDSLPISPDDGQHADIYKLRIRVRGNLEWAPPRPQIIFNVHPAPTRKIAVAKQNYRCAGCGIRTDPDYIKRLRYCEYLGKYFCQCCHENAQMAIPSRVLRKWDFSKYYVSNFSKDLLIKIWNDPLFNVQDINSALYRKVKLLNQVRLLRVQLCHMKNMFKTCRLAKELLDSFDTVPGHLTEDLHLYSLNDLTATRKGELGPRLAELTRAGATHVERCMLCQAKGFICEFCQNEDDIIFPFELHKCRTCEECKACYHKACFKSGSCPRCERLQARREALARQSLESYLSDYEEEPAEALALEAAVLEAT
B3: Mothers against decapentaplegic homolog 4 (Homo sapiens), Q13485 (parent)
chain: B1 chain
partner: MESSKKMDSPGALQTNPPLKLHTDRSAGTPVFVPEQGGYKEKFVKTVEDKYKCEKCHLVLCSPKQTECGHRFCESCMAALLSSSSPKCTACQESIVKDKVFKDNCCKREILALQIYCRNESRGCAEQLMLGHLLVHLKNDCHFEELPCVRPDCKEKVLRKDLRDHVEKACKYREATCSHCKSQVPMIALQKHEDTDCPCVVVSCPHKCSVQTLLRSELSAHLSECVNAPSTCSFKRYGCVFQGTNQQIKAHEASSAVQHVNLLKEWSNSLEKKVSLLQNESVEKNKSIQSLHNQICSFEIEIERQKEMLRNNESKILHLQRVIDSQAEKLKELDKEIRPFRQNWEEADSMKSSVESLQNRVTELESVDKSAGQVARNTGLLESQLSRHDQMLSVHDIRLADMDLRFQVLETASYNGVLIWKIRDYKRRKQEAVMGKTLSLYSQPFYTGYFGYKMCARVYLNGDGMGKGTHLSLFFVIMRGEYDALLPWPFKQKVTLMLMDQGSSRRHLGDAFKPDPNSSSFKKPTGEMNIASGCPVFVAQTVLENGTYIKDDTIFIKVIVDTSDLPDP
B4: Mothers against decapentaplegic homolog 4 (Homo sapiens), Q13485 (parent)
chain: B1 chain
partner: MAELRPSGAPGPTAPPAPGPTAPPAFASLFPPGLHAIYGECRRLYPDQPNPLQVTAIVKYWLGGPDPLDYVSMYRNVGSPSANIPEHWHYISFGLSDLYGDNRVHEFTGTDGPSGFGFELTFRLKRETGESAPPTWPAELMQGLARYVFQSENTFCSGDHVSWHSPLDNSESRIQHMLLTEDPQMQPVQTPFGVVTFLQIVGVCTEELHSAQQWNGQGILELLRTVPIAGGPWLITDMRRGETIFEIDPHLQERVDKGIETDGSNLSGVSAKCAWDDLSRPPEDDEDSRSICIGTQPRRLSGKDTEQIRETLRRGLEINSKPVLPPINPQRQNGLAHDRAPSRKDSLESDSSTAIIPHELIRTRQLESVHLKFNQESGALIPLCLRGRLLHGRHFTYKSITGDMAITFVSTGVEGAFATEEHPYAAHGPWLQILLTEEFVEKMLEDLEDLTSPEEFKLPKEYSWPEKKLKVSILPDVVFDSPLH
B5: Mothers against decapentaplegic homolog 4 (Homo sapiens), Q13485 (parent)
chain: B1 chain
partner: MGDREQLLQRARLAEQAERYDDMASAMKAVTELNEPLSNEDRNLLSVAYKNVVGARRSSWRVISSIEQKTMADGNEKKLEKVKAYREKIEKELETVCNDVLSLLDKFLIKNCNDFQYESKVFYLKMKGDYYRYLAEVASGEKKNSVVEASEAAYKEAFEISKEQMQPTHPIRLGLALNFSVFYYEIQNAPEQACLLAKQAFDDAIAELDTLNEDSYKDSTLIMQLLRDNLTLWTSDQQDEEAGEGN
B6: Mothers against decapentaplegic homolog 4 (Homo sapiens), Q13485 (parent)
chain: B1 chain
partner: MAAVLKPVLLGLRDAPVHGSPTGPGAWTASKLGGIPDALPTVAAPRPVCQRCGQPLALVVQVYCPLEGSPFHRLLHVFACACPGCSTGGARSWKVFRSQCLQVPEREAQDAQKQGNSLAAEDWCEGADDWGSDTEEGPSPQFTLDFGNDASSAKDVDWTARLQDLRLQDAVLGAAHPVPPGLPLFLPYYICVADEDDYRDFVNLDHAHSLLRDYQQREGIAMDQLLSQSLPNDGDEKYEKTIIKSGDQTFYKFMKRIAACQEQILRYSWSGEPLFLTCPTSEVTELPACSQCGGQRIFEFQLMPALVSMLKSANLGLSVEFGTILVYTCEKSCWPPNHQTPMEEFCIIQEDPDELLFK
B7: Mothers against decapentaplegic homolog 4 (Homo sapiens), Q13485 (parent)
chain: B1 chain
partner: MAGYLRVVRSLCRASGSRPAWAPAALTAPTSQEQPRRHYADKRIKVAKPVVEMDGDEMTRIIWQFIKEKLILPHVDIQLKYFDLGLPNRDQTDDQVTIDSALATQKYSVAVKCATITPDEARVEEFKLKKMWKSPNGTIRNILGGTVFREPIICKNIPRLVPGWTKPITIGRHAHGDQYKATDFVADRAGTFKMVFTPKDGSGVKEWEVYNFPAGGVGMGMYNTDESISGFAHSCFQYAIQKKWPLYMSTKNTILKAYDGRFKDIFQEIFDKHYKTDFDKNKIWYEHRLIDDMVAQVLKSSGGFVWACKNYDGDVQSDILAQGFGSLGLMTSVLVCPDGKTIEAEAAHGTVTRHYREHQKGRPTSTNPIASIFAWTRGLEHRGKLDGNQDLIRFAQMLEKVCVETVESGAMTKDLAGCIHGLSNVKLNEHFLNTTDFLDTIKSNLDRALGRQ
B8: Mothers against decapentaplegic homolog 4 (Homo sapiens), Q13485 (parent)
chain: B1 chain
partner: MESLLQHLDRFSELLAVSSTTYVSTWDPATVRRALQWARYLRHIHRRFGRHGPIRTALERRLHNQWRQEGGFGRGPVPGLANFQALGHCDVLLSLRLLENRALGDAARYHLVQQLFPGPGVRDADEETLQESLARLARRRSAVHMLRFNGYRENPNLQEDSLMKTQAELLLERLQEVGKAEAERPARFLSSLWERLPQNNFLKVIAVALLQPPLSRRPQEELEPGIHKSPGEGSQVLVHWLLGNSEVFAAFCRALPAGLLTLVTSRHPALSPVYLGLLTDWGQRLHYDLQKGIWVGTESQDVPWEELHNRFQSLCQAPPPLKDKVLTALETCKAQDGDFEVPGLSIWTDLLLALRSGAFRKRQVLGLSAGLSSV

Variants of: B1
Details: with nkx21_human NKX2-1, P43699

Variant | effect of a mutation on the interaction
D351H | with no effect

Variants of: B2
Details: with rubic_human RUBCN

Variant | effect of a mutation on the interaction
R361H | with no effect

Variants of: B2
Details: with rubic_human RUBCN
Remark: another data set of the same source

Variant | effect of a mutation on the interaction
R361C | with no effect

Variants of: B2
Details: with rubic_human RUBCN
Remark: another data set of the same source

Variant | effect of a mutation on the interaction
G386D | with no effect

Variants of: B2
Details: with rubic_human RUBCN
Remark: another data set of the same source

Variant | effect of a mutation on the interaction
D351H | with no effect

Variants of: B3
Details: with traf3_human TRAF3, Q13114

Variant | effect of a mutation on the interaction
D351H | with no effect

Variants of: B3
Details: with traf3_human TRAF3, Q13114
Remark: another data set of the same source

Variant | effect of a mutation on the interaction
G386D | with no effect

Variants of: B3
Details: with traf3_human TRAF3, Q13114
Remark: another data set of the same source

Variant | effect of a mutation on the interaction
R361C | with no effect

Variants of: B3
Details: with traf3_human TRAF3, Q13114
Remark: another data set of the same source

Variant | effect of a mutation on the interaction
R361H | with no effect

Variants of: B4
Details: with sufu_human SUFU

Variant | effect of a mutation on the interaction
R361H | with no effect

Variants of: B4
Details: with sufu_human SUFU
Remark: another data set of the same source

Variant | effect of a mutation on the interaction
R361C | with no effect

Variants of: B4
Details: with sufu_human SUFU
Remark: another data set of the same source

Variant | effect of a mutation on the interaction
D351H | with no effect

Variants of: B4
Details: with sufu_human SUFU
Remark: another data set of the same source

Variant | effect of a mutation on the interaction
G386D | with no effect

Variants of: B5
Details: with 1433f_human YWHAH

Variant | effect of a mutation on the interaction
R361H | with no effect

Variants of: B5
Details: with 1433f_human YWHAH
Remark: another data set of the same source

Variant | effect of a mutation on the interaction
R361C | with no effect

Variants of: B5
Details: with 1433f_human YWHAH
Remark: another data set of the same source

Variant | effect of a mutation on the interaction
D351H | with no effect

Variants of: B5
Details: with 1433f_human YWHAH
Remark: another data set of the same source

Variant | effect of a mutation on the interaction
G386D | with no effect

Variants of: B6
Details: with pdd2l_human PDCD2L

Variant | effect of a mutation on the interaction
D351H | with no effect

Variants of: B6
Details: with pdd2l_human PDCD2L
Remark: another data set of the same source

Variant | effect of a mutation on the interaction
G386D | with no effect

Variants of: B6
Details: with pdd2l_human PDCD2L
Remark: another data set of the same source

Variant | effect of a mutation on the interaction
R361C | with no effect

Variants of: B6
Details: with pdd2l_human PDCD2L
Remark: another data set of the same source

Variant | effect of a mutation on the interaction
R361H | with no effect

Variants of: B7
Details: with idhp_human IDH2, P48735

Variant | effect of a mutation on the interaction
G386D | with no effect

Variants of: B8
Details: with fancf_human FANCF

Variant | effect of a mutation on the interaction
G386D | with no effect
